# From US7517661B2, “Methods of screening for ligands for FPRL2” (Takeda Pharmaceutical Company Limited, priority 2003, dated 2009)
# Where a chain is given by its changes, count along the chain named. Where no end group is shown, it is not given here.
# Key:
# human FPRL2 [1] = target: T1, human FPRL2 (Homo sapiens, UniProt P25089); test: Intracellular cAMP production inhibition assay (AlphaScreen) in human FPRL2-expressing CHO cells; assay type: cell-based; settings: human FPRL2-expressing CHO cells; reactivity also examined for human FPRL1, human FPR1 and mock CHO (FIGS. 1-4)
# T1 construct: expressed in transfected cells; host or cells: CHO cells
# T1 sequence (P25089 1-353 G94A/S211T/D338H): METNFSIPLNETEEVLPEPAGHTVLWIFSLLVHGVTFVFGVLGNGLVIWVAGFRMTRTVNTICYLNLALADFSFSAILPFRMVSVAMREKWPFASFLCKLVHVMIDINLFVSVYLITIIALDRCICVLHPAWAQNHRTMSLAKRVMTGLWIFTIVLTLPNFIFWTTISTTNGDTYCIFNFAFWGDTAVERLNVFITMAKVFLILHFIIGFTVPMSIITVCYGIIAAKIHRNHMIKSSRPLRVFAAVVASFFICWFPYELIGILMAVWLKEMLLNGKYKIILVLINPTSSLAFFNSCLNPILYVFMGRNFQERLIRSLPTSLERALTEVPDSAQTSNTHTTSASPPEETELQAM
# Method: (§1) Orphan G protein-coupled receptor protein-expressing CHO cells were inoculated in one flask of 150 cm^2 at 1×10^7 cells, followed by incubation at 37° C. in a CO2 incubator. Subsequently to the incubation, the cells were detached using 0.5 mM EDTA/PBS, and washed with PBS. The cells were then suspended at a density of 1×10^7 cells/ml in Buffer 1 (HBSS+0.1% BSA, 25 mM HEPES, pH 7.3, 0.5 mM IBMX). This cell suspension, 440 μl, was mixed with 22 μl of anti-cAMP acceptor beads of AlphaScreen cAMP Assay Kit (Perkin Elmer) and 638 μl of Buffer 1. The resulting mixture was dispensed on a white 96-well plate (Costar) by 10 μl each. Next, 10 μl each of a Buffer 1 dilution or solution of the compound to be screened was added to each well. In this case, the cell suspension was not given in one row of the plate but only a mixture of 9 μl of anti-cAMP acceptor beads and 441 μl of Buffer 1 was charged and instead of the compound, a serial dilution of cAMP was added thereto. This was made standard. The plate in which a mixture of the cell suspension and the compound was charged was kept shaken at room temperature for 30 minutes. Thirty minutes after, a mixture of 20 μl of Biotinyl camp and 82 μl of Streptavin donor beads of AlphaScreen cAMP Assay kit with 40 ml of Buffer 2 (HBSS+0.1% BSA, 25 mM HEPES, pH 7.3, 1.5% Tween 20) was added to all wells of the plate by 30 μl each. The plate was kept shaken at room temperature for 3 hours and the fluorescence intensity was measured by Fusion a (Perkin Elmer). Using the cAMP standard charged in the plate, the cAMP level in each well was calculated. In addition to human FPRL2-expressing CHO cells, three orphan G protein-coupled receptor protein-expressed CHO cells were added and the resulting compound library was provided for screening using the assay system described above.
# human FPRL2 [2] = target: T2, human FPRL2 (Homo sapiens, UniProt P25089, D338H/G94A/S211T); test: as above; assay type: cell-based; settings: summary statement in disclosure of invention
# T2 construct: expressed in transfected cells; host or cells: CHO cells
# T2 sequence (P25089 1-353 G94A/S211T/D338H): T1 sequence (P25089 1-353 G94A/S211T/D338H)
# Method: as §1
# FPRL2 = target: T3, FPRL2 (Homo sapiens, UniProt P25089); settings: J Biol. Chem., Jun. 15, 2001; 276 (24): 21585-93; cited from earlier work
# T3 sequence (P25089 1-353): T1 sequence (P25089 1-353 G94A/S211T/D338H) with A94G, T211S, H338D
ligand activity on FPRL2 (human FPRL2 [2]),Substance,intracellular cAMP production inhibition activity (human FPRL2 [1]),agonist for FPRL2 (reported) (FPRL2)
exhibit a ligand activity on FPRL2,Gly-Asn-His-Trp-Ala-Val-Gly-His-Leu-Met-NH2 (GNHWAVGHLM-NH2; listed as Homo sapiens) [hNeuromedin C],exhibited the intracellular cAMP production inhibition activity specific to human FPRL2,–
exhibit a ligand activity on FPRL2,Met-Pro-His-Ser-Phe-Ala-Asn-Leu-Pro-Leu-Arg-Phe-NH2 (MPHSFANLPLRF-NH2; listed as Sus scrofa) [hRFRP-1-12],exhibited the intracellular cAMP production inhibition activity specific to human FPRL2,–

# The remaining lines, values behind:
Substance,ligand activity on FPRL2 (human FPRL2 [2]),intracellular cAMP production inhibition activity (human FPRL2 [1]),agonist for FPRL2 (reported) (FPRL2)
Ala-Arg-Pro-Gly-Tyr-Leu-Ala-Phe-Pro-Arg-Met-NH2 (ARPGYLAFPRM-NH2; listed as Aplysia sp.) [SCPA],exhibit a ligand activity on FPRL2,exhibited the intracellular cAMP production inhibition activity specific to human FPRL2,–
"His-Trp-Ala-Trp-Phe-Lys-NH2 (HWAWFK-NH2; not fully specified (residues 2, 5); printed as His-Trp-Ala-Trp-Phe-Lys-NH2) [GHRP-6]",exhibit a ligand activity on FPRL2,exhibited the intracellular cAMP production inhibition activity specific to human FPRL2,–
Trp-Lys-Tyr-Met-Val-Met-NH2,–,–,agonist for FPRL2
